Residue numbers refer to the chain shown, from its start.
T1: Recombinant Human IL-17 (human, UniProt Q16552 20-155, limits assumed)
T1 sequence (looked up): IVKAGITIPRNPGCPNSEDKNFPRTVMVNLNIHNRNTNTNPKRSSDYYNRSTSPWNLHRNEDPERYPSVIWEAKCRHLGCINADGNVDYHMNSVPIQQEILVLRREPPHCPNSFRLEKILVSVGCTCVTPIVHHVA

B1: DVD2176 (bispecific antibody)
VH: EVQLVQSGAEVKKPGASVKVSCKASGYTFTTYGVSWVRQAPGQGLEWMGEIYPGNYNTYYNEKFRGRVTMTTDTSTSTAYMELRSLRSDDTAVYYCARWRTSYFSDYGYFDYWGQGTTVTVSSASTKGPSVFPLAPEVQLVQSGAEVKKPGSSVKVSCKASGGSFGGYGIGWVRQAPGQGLEWMGGITPFFGFADYAQKFQGRVTITADESTTTAYMELSGLTSDDTAVYYCARDPNEFWNGYYSTHDFDSWGQGTTVTVSS
VL: DVVMTQSPLSLPVTLGQPASISCRSSQSLVHSHGNTYLHWYQQRPGQSPRLLIYTVSNRFSGVPDRFSGSGSGTDFTLKISRVEAEDVGVYYCSQSTHVPYTFGGGTKVEIKRTVAAPEIVLTQSPDFQSVTPKEKVTITCRASQDIGSELHWYQQKPDQPPKLLIKYASHSTSGVPSRFSGSGSGTDFTLTINGLEAEDAGTYYCHQTDSLPYTFGPGTKVDIKR
B2: DVD2178 (bispecific antibody)
VH: EVQLVQSGAEVKKPGASVKVSCKASGYTFTTYGVSWVRQAPGQGLEWMGEIYPGNYNTYYNEKFRGRVTMTTDTSTSTAYMELRSLRSDDTAVYYCARWRTSYFSDYGYFDYWGQGTTVTVSSASTKGPEVQLVQSGAEVKKPGESVKISCKASGGSFRSYGISWVRQAPGQGLEWMGGITHFFGITDYAQKFQGRVTITADESTTTAYMELSGLTSDDTAVYYCAREPNDFWNGYYDTHDFDSWGQGTTVTVSS
VL: B1 VL with D146N, P161S, T173I, G202A, T209S, S211T, Y214H, P218Q
B3: DVD2182 (bispecific antibody)
VH: EVQLVQSGAEVKKPGASVKVSCKASGYTFTTYGVSWVRQAPGQGLEWMGEIYPGNYNTYYNEKFRGRVTMTTDTSTSTAYMELRSLRSDDTAVYYCARWRTSYFSDYGYFDYWGQGTTVTVSSASTKGPSVFPLAPEVQLVQSGAEVKKPGESVKISCKASGGSFRSYGISWVRQAPGQGLEWMGGITHFFGITDYAQKFQGRVTITADESTTTAYMELSGLTSDDTAVYYCAREPNDFWNGYYDTHDFDSWGQGTTVTVSS
VL: B1 VL with D146N, P161S, T173I, G202A, T209S, S211T, Y214H, P218Q
B4: DVD2184 (bispecific antibody)
VH: EVQLVQSGAEVKKPGASVKVSCKASGYTFTSYWMHWVRQAPGQGLEWIGNINPKGGSNIYNEKFQGRVTMTRDTSISTAYMELSRLRSDDTAVYYCARLDYFGDSFDLWGQGTTVTVSSASTKGPEVQLVQSGAEVKKPGSSVKVSCKASGYTFTDYEIHWVRQAPGQGLEWMGVNDPESGGTFYNQKFDGRVTLTADESTSTAYMELSSLRSEDTAVYYCTRYSKWDSFDGMDYWGQGTTVTVSS
VL: DIQMTQSPSSLSASVGDRVTITCRASQGIRNYLNWYQQKPGKAPKLLIYYASNLEVGVPSRFSGSGSGTDYTLTISSLQPEDFATYYCQQDNRFPYTFGGGTKVEIKRTVAAPDIQMTQSPSSLSASVGDRVTITCRASSGIISYIDWFQQKPGKAPKRLIYATFDLASGVPSRFSGSGSGTDYTLTISSLQPEDFATYYCRQVGSYPETFGQGTKLEIKR
B5: DVD2148 (bispecific antibody)
VH: EVTLRESGPGLVKPTQTLTLTCTLYGFSLSTSDMGVDWIRQPPGKGLEWLAHIWWDDVKRYNPALKSRLTISKDTSKNQVVLKLTSVDPVDTATYYCARTVSSGYIYYAMDYWGQGTLVTVSSASTKGPEVQLVQSGAEVKKPGSSVKVSCKASGYTFTDYEIHWVRQAPGQGLEWMGVNDPESGGTFYNQKFDGRVTLTADESTSTAYMELSSLRSEDTAVYYCTRYSKWDSFDGMDYWGQGTTVTVSS
VL: DIQMTQSPSSLSASVGDRVTISCRASQDIRNYLNWYQQKPGKAPKLLIFYTSKLHSGVPSRFSGSGSGTDYTLTISSLQPEDIATYYCQQGLTPPLTFGGGTKVEIKRTVAAPDIQMTQSPSSLSASVGDRVTITCRASSGIISYIDWFQQKPGKAPKRLIYATFDLASGVPSRFSGSGSGTDYTLTISSLQPEDFATYYCRQVGSYPETFGQGTKLEIKR
B6: DVD2150 (bispecific antibody)
VH: B5 VH
VL: DIQMTQSPSSLSASVGDRVTISCRASQDIRNYLNWYQQKPGKAPKLLIFYTSKLHSGVPSRFSGSGSGTDYTLTISSLQPEDIATYYCQQGLTPPLTFGGGTKVEIKRTVAAPSVFIFPPDIQMTQSPSSLSASVGDRVTITCRASSGIISYIDWFQQKPGKAPKRLIYATFDLASGVPSRFSGSGSGTDYTLTISSLQPEDFATYYCRQVGSYPETFGQGTKLEIKR
B7: DVD2180 (bispecific antibody)
VH: B2 VH
VL: DVVMTQSPLSLPVTLGQPASISCRSSQSLVHSHGNTYLHWYQQRPGQSPRLLIYTVSNRFSGVPDRFSGSGSGTDFTLKISRVEAEDVGVYYCSQSTHVPYTFGGGTKVEIKRTVAAPSVFIFPPEIVLTQSPDFQSVTPKEKVTITCRASQNIGSELHWYQQKPDQSPKLLIKYASHSISGVPSRFSGSGSGTDFTLTINGLEAEDAATYYCHQSDTLPHTFGQGTKVDIKR
B8: DVD2170 (bispecific antibody)
VH: EVQLVQSGAEVKKPGASVKVSCKASGYTFTTYGVSWVRQAPGQGLEWMGEIYPGNYNTYYNEKFRGRVTMTTDTSTSTAYMELRSLRSDDTAVYYCARWRTSYFSDYGYFDYWGQGTTVTVSSASTKGPSVFPLAPEVQLVQSGAEVKKPGSSVKVSCKASGYTFTDYEIHWVRQAPGQGLEWMGVNDPESGGTFYNQKFDGRVTLTADESTSTAYMELSSLRSEDTAVYYCTRYSKWDSFDGMDYWGQGTTVTVSS
VL: DVVMTQSPLSLPVTLGQPASISCRSSQSLVHSHGNTYLHWYQQRPGQSPRLLIYTVSNRFSGVPDRFSGSGSGTDFTLKISRVEAEDVGVYYCSQSTHVPYTFGGGTKVEIKRTVAAPDIQMTQSPSSLSASVGDRVTITCRASSGIISYIDWFQQKPGKAPKRLIYATFDLASGVPSRFSGSGSGTDYTLTISSLQPEDFATYYCRQVGSYPETFGQGTKLEIKR
B9: DVD2149 (bispecific antibody)
VH: EVQLVQSGAEVKKPGSSVKVSCKASGYTFTDYEIHWVRQAPGQGLEWMGVNDPESGGTFYNQKFDGRVTLTADESTSTAYMELSSLRSEDTAVYYCTRYSKWDSFDGMDYWGQGTTVTVSSASTKGPEVTLRESGPGLVKPTQTLTLTCTLYGFSLSTSDMGVDWIRQPPGKGLEWLAHIWWDDVKRYNPALKSRLTISKDTSKNQVVLKLTSVDPVDTATYYCARTVSSGYIYYAMDYWGQGTLVTVSS
VL: DIQMTQSPSSLSASVGDRVTITCRASSGIISYIDWFQQKPGKAPKRLIYATFDLASGVPSRFSGSGSGTDYTLTISSLQPEDFATYYCRQVGSYPETFGQGTKLEIKRTVAAPDIQMTQSPSSLSASVGDRVTISCRASQDIRNYLNWYQQKPGKAPKLLIFYTSKLHSGVPSRFSGSGSGTDYTLTISSLQPEDIATYYCQQGLTPPLTFGGGTKVEIKR
B10: DVD2151 (bispecific antibody)
VH: B9 VH
VL: DIQMTQSPSSLSASVGDRVTITCRASSGIISYIDWFQQKPGKAPKRLIYATFDLASGVPSRFSGSGSGTDYTLTISSLQPEDFATYYCRQVGSYPETFGQGTKLEIKRTVAAPSVFIFPPDIQMTQSPSSLSASVGDRVTISCRASQDIRNYLNWYQQKPGKAPKLLIFYTSKLHSGVPSRFSGSGSGTDYTLTISSLQPEDIATYYCQQGLTPPLTFGGGTKVEIKR
B11: DVD2169 (bispecific antibody)
VH: EVQLVQSGAEVKKPGSSVKVSCKASGYTFTDYEIHWVRQAPGQGLEWMGVNDPESGGTFYNQKFDGRVTLTADESTSTAYMELSSLRSEDTAVYYCTRYSKWDSFDGMDYWGQGTTVTVSSASTKGPEVQLVQSGAEVKKPGASVKVSCKASGYTFTTYGVSWVRQAPGQGLEWMGEIYPGNYNTYYNEKFRGRVTMTTDTSTSTAYMELRSLRSDDTAVYYCARWRTSYFSDYGYFDYWGQGTTVTVSS
VL: DIQMTQSPSSLSASVGDRVTITCRASSGIISYIDWFQQKPGKAPKRLIYATFDLASGVPSRFSGSGSGTDYTLTISSLQPEDFATYYCRQVGSYPETFGQGTKLEIKRTVAAPSVFIFPPDVVMTQSPLSLPVTLGQPASISCRSSQSLVHSHGNTYLHWYQQRPGQSPRLLIYTVSNRFSGVPDRFSGSGSGTDFTLKISRVEAEDVGVYYCSQSTHVPYTFGGGTKVEIKR

Key:
Recombinant Human IL-13 = Recombinant Human IL-13 (human, UniProt P35225 35-146, limits assumed); assay: cell-based or functional assay
Recombinant Human IL-13, sequence (P35225 35-146 limits assumed): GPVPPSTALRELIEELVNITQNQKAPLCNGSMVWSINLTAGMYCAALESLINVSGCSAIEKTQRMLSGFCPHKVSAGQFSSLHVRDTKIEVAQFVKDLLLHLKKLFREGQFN

Recombinant Human IL-17 = target: T1, Recombinant Human IL-17; assay: cell-based or functional assay

Binder | N-Terminal VD IL13 Neutralization Assay IC50 (Recombinant Human IL-13) | C-Terminal VD IL17 Neutralization Assay IC50 (Recombinant Human IL-17) | C-Terminal VD IL13 Neutralization Assay IC50 (Recombinant Human IL-13) | N-Terminal VD IL17 Neutralization Assay IC50 (Recombinant Human IL-17)
B1 | 0.106 nM | 0.116 nM | – | –
B2 | 0.088 nM | 0.691 nM | – | –
B3 | 0.077 nM | 0.266 nM | – | –
B4 | 0.121 nM | 0.405 nM | – | –
B5 | 0.054 nM | 0.0116 nM | – | –
B6 | 0.099 nM | 0.004 nM | – | –
B7 | 0.091 nM | 0.0567 nM | – | –
B8 | 0.106 nM | 0.0053 nM | – | –
B9 | – | – | 1.43 nM | 0.0028 nM
B10 | – | – | 0.526 nM | 0.0179 nM
B11 | – | – | 0.309 nM | 0.0021 nM
